Results on 2 molecules are retold here after patent US20100254977A1.

Experiment [1] deals with human αv-integrins (human) (UniProt P06756). The experiment can be described thus: cell-based or functional assay.
Experiment [2] concerns the target human αv-integrins (human), P06756. Kind of experiment: cell-based or functional assay.

Sequence of human αv-integrins (human) (P06756 31-1048): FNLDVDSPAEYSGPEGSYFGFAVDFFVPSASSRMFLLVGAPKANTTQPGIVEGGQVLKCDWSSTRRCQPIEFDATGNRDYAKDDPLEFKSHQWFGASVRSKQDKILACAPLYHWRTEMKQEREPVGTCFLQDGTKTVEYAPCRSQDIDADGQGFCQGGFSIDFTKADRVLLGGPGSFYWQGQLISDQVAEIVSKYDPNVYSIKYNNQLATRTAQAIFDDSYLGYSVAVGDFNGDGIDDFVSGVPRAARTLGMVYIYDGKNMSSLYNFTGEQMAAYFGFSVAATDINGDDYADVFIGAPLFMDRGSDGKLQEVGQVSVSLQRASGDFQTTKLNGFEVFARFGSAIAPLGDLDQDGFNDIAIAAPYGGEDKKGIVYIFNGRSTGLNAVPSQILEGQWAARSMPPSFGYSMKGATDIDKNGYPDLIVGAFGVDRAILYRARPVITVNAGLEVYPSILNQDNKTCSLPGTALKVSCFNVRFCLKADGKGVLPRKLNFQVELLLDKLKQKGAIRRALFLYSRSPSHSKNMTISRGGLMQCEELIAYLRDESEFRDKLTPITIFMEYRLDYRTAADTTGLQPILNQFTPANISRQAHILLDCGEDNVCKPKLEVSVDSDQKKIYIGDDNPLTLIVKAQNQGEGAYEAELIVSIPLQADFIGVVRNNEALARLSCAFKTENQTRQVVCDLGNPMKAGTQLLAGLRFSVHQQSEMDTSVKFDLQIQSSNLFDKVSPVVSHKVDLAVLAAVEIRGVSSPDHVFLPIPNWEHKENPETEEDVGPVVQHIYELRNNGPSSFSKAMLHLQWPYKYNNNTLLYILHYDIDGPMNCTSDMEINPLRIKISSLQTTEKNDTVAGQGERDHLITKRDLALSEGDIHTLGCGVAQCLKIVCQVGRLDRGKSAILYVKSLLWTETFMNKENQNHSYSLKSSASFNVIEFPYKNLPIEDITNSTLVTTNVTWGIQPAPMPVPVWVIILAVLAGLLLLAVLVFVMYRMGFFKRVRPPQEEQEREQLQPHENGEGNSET
Sequence of human αv-integrins (human), P06756 (P06756 31-1048): as above

In the case of DI-17E6 (antibody), in experiment [1], the EC50, blocking of VEGF-induced migration of human endothelial cells on vitronectin came to 50 nM; the EC50, blocking of tumor cell adhesions was in the range of 0.1 to 50 nM; the EC50, inhibition of human endothelial cell adhesion to vitronectin is 10 nM; the IC50, growth of HUVEC on vitronectin (Alamar Blue) came out at 4 ng/mL.

B1: mouse mAb 17E6 (antibody, mouse IgG1, V domains shown)
VH: EPKSSDKTHTCPPCP
VL: WGQGTTVTVSS
Take B1: the IC50, growth of HUVEC on vitronectin (Alamar Blue) in experiment [2] was determined as 5 ng/mL.
